Measured values reported in patent US20140256614.

Molecular target: T1, MK2-activating peptide (transduction domain YARAAARQARA coupled to a Kaposin-derived region)
T1 chain: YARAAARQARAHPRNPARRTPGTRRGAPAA

B1: MK2 (endogenous, in mouse embryonic fibroblasts, MEF) (protein)
chain: MLSGSPGQTPPAPFPSPPPPAPAQPPPPFPQFHVKSGLQIRKNAITDDYKVTSQVLGLGINGKVLRIFDKRTQQKFALKMLQDCPKARREVELHWRASQCPHIVHIVDVYENLYAGRKCLLIVMECLDGGELFSRIQDRGDQAFTEREASEIMKSIGEAIQYLHSINIAHRDVKPENLLYTSKRPNAILKLTDFGFAKETTSHNSLTTPCYTPYYVAPEVLGPEKYDKSCDMWSLGVIMYILLCGYPPFYSNHGLAISPGMKTRIRMGQYEFPNPEWSEVSEEVKMLIRNLLKTEPTQRMTITEFMNHPWIMQSTKVPQTPLHTSRVLKEDKERWEDVKEEMTSALATMRVDYEQIKIKKIEDASNPLLLKRRKKARAVEDAALAH
phosphorylated HSP27 by immunoblot, time course at 50 µM peptide, MEF: significant MK2 activation was observed by 15 minutes of treatment
